# Experiment: soluble on expression in E. coli; label from the status in PepcDB or PDB records
row,Sequence,soluble on expression in E. coli
1,MGSDKIHHHHHHMDSSIDLSLAYADSGVGEVLDQLDCELIGLKPVKTRIREIAALLLVDRARKDLDLASTMPSLHMSFTGRPGTGKTTVAIRISQILHRLGYLRKGHVVTVTRDDLVGQYVGHTAPKTREMIKRAQGGVLFIDEAYYLYKPGNERDYGAEAIEILLQDMESRRGDFVVIFAGYKDKMDAFYQSNPGLSSRVAHHIDFPDYSNRELLAIAQLFLVQQNYYFGDEAEGIFEDYIERRRQLPFFANARSIRNALDRTRLRQANRLFARMGEPLSRDELMTIEPADILASRVFQGEVEGRHPTQPLMESSE,not soluble
2,MRSLLLLALVSASAYASFDKIKDSIQNPLARGFGDDIAWVKWEDAIETALDTDKPIFLLIHKSWCHACKALKKTFQQSNAKKAFKKLSEHFVMVNTEDDDEPFEEEYRPDGKYIPRLLFLDKNGDLLQEFKNKKAEYKNYAYYYSSPADILNSMKDVLKHFGVDIPEAKRGDKLKPKKPEGKKKEL,not soluble
3,MSLTGKPIVLGLTISTTAAAGVADHADHMNGSLLAQEEINANGGILGRPLELRPVDVDLLSAESCQASIRKLVDLKVHAISSPFLFVPIPAMDASANYKCPYVNGNTQRAATDMVAKHPEKYNHIFQMDPSEVFYGETFPVFLESLADSGNWKPKNNKVHIVQEQIAYCQTISRACQEALKKSRFELAKVTDIQYPVQDWGSVIRDIKKTGAGTVMMDHWVAAEYAAFCKQFRANPLKGTLIYLQYGPSQPEFLELTGKAAEGFVWSTMLGVYADKKGQAFRDKYQKRFPGKTMGLCYTGGGYDIAYMMAQAWNAVGNPDDFKAVNDYIRKTAFRGVCGWSYMNNPRQEARHFPLGTDSIESGMSQLYFQIQDGKNKIIYPPQLKEGHHHHHH,soluble
4,SLGTLPPELQNTCVARGKLPLLLDLDNTLLHAQAASATGCDVRLQDWIDPYGEPELYRFELPCNRKTYYMKLRPHLRTFLKKLEPFYEMSVYTNATQEYADIVIAILDGNRQLFQDRIVARDSGFRGEASENKAVRRLYEGMDKRCIVAFDDRQNIWTDLPLTHVVKAQHYDFFDSHKTELNAYYPPLSNGIEGMTAPDVLGNRQNED,soluble
5,MDITNLIELETICLDLKAQTKDEALKELVEMLEAAGKLNSQSQFLADIWKREEIGNTGFDDGIAIPHAKSDAVAKPAVAVGISRNGIDYGAEDGELSDVFFMLASPDGDDHHHIEVLAQISTKIIEDGFVEKLKQAQSREEALEMLTDIQTQSNEFLPTSLEFASEPLSPWAQKLGRIKEH,not soluble
6,MSLSKQIVILGAGYGGLLAALNVRKYYSKSEAQVTVINQYPTHQIITELHRLAAGNVSEQAVAMPLTKLFKGKDIDLKIATVESFSVDSKEIKLAGGTTLSYDALVVALGSKTAYFGIPGLEENSMVLKSAADANKIYKHVEDRIREYAKTKNEADATIVIGGGGLTGVELVGELADIMPKLAKSHGVNPKEVKLLLVEAGPKILPVLPDHLIERATTSLEARGVTFLTGLPVTNVAGNEIDLKDGQKLVANTFVWTGGVQGNPLIGESGLEVNRGRATVDAYLQSTSHKDVFVAGDSAVVFAPDGRPYPPTAQIAWQMGELIGYNLYAALEGKAFEEFAPVNSGTLASLGRKDAVATIGASNTPLKGLPASLMKEASNVRYLSHIKGLFSLAYEGHHHHHH,soluble
7,MGSDKIHHHHHHMSASLQTADRVRRWRIEGELTTRTPLHMGSGSFEARQELRRAPQTDDIAKAKAVLLDSDQRPCLTGSGLKGAMLAWANAYLPDPERDRLLFGCEPDGDGKGQGGRLEFQTAFLSQNKENTSPSSSPTPFWMSDRRTDVDTGVRINRASGTALDKHLFYKEVVAPGTAFRMVLDLDLPACCTDKGHALVNRVLALLEAFNLSDDDRVPPLTLGAMTGRGHGRFAWRLTNLSRVTDASARTWIDKGAPGTWAAALTPVPDKGPWQTTAKATLEVVQSPATLVCEVTLTFDHRFLISEPARVVTEDEARTRSGKTRTAGIMPKVDGKGNAVLPTASIKGVLRSRAERILATLTGDASAFEHAPGRGPAGQDNPAADMMTDRCLPTSRLFGAASWRAALDVEPFRPLSGHTTVAHQELVAIDRFTGGVSGSAKYDIDAFHRPQFKGRLRLNLRRSRLEDVGLLVLLLRDLAEGDLSFGYGGTKGYGGTQAMVTVQVRGTTAGTQALPLPEETGGAGIDTPVSWSSIQDSALASPLREAVAAFRRLYCKGEAV,not soluble
8,MGHHHHHHSHMEFLTFLKSDYTHANLVDKALQLLKERILKGDTLAYFLRGQLYFEEGWYEEALEQFEEIKEKDHQATYQLGVMYYDGLGTTLDAEKGVDYMKKILDSPCPKARHLKFAAAYNLGRAYYEGKGVKRSNEEAERLWLIAADNGNPKASVKAQSMLGLYYSTKEPKELEKAFYWHSEACGNGNLESQGALGLMYLYGQGIRQDTEAALQCLREAAERGNVYAQGNLVEYYYKMKFFTKCVAFSKRIADYDEVHDIPMIAQVTDCLPEFIGRGMAMASFYHARCLQLGLGITRDETTAKHYYSKACRLNPALADELHSLLIRQRI,not soluble
9,SNAMNVWQVVGYKHSGKTTLMEKWVAAAVREGWRVGTVKHHGHGGEPARPEGVDSVRHERAGAVATAVEGDGLLQLHLRRPLWRLDDVLALYAPLRLDLVLVEGYKQERHPKVVLVRSEEDWASLQHLANIRAVIAWEPLEGPLAHPVFSLADDDEYIPWLMNEVRTRT,soluble
10,MSFASGCTPVSFDKLFEVSSGDKVSRENWGMIARPEPQHDSLKRRNTTSSIAKKKAKMTRGDEQITDETARKAATQLLDQIQDTPGRISLNFETPEAASVCPIPTSLNQIVNTKWTVNQLQEGQLTMLLAQDANKFKSLGVKNIKKGSVETQILPRQMDVKEIVEKLKKQDNDSDQFVGYAAAVANVLRRCDAETAQKITQAITATIEKEAPSIVNC,not soluble
11,MGGSHHHHHHGMASALELLSPQSPFRVDRGEHLPFLVKGARYTLVPAGQEGGGQTWRPLPGTTSPEDSSHLHRGQKKGAALGMAVYPYNCQAHAP,not soluble
12,MRGHLIDGDGRCIHYHGPFDVVGNKCATCNEWWACHRCHEEIANHPFGKMLIDAPSSLQCGHCGELMAYGVQKCPRCGHNFNPGCSLHTPLYYEMPSLEHHHHHH,not soluble
13,MHENKYLTIYHDLISRIRRGEWKAYDKLPSEHELAARYETSRETIRKALHLLSEHGYIQKMKGKGSIVLDVGKYDFPVSGLVSFKELAQTMKQPVRTIVHELAIIKPDRELRQHLRASSKDEVWKVVRVREIGGERIILDKDFFLKKHVPLLTKEICEDSIYEYLETKLHLPISFAKKEISVDEATDEDRRYLDLHGDDRVVVVKNYVYLSDAALFQYTESRHRLDKFRFVDFARRK,not soluble
14,MGSDKIHHHHHHLPTSVSPISYQLTVKTYLPGYGYTADKNNLTFEGQVLIELNITKSIKKVSLNSKDLNYTEEFIKKSSILVNGKSIAFTLDDKQSTHEKIFFNLDETVEPTTSATLKVAFGAPLRTDMSGLYQTTYTNSKGESKMAAVTQMEPVYARRMVPCFDEPAYKATWTVTVIHPNKTVAVSNGIEDKVEDGQPGFIISTFKPTPRMSSYLLAIFISEFEYNEATTKSGVRFRVWSRPEEKNSTMYAVEAGVKCLEYYEKYYNISFPLPKQDMVALPDFSAGAMENWGLITYRESALLYDPRIYSGSQKRRVAVVIAHELAHQWFGNLVTLKWWNDLWLNEGFATLVEYLGTDEISDGNMRMREWFTMDALWSALAADSVASTHPLTFKIDKAMEVLDSFDSVTYDKG,not soluble
15,MTNKQVEISMAEWDVMNIIWDKKSVSANEIVVEIQKYKEVSDKTIRTLITRLYKKEIIKRYKSENIYFYSSNIKEDDIKMKTAKTFLNKLYGGDMKSLVLNFAKNEELNNKEIEELRDILNDISKK,soluble
16,REPLSFSLFSQPECVEQPERLAQVFALLVNAHYQTSPNDLFALLQDEAMTLFVAYQGEVCVGCVLAVREGELDAPTIEAIQLGTRRPKGHLTPVTLANQLGISQAARQSCWRILRIAVHPDCQRQGIGSQLLTHFIAQHHADYYATSFGVSEDLLPFWLANHFVPIKLGSHRDQASGCYSLLMVRG,not soluble
17,GPGSMHDLVADDSQDGDNEVISSEVPLNKHAGDEEATRTSTFKYKKGILINQGYEFDGSSTTCAEVPASAWGSNITGDEEATTTSYVRVYVLVSSQAALKELALPPVGSKGASGVPHATGYVPLTAATRAILGANMENCGW,not soluble
18,MGSDKIHHHHHHMISQNSCQINESDLKNLKDWFYRYVRSFYSSDSIIQQAILLKEKHSLRVCNEILNIGKKLDLSHNALRLAEVMALFHDIGRFQQFVRYQTFVDQKSENHGELGVRILKQEKALAALDRDARELILKAISYHNRLTIPENESPICTYFSRLLRDADKLDIYYVVTTCYNSNGTERKAAVELDLPDTPEVSGEILISLIEEKMISLHQLKSLNDFKLLQMAWVYDINYLPTFRMIYERNYLRKIRDTLPGTEEIEQVYCKLISFLKAKL,not soluble
19,MKTSKFTEAQIAFALKQAELGTKVEEVCRKLGISEATFYNWKKKYGGVGPSELRRMRQLEEENTKLKRLVADLSLDKAMLQDVLSKKLAAALEHHHHHH,not soluble
20,SGIVVSPILIPENQRQPFPRDVGKVVDSDRPEGSKFRLTGKGVDQDPKGTFRINENTGSVSVTRTLDRETIATYQLYVETTDASGKTLEGPVPLEVIVID,soluble
21,AHHHHHHGSPITKVTRNYQITIPAEIRKALGIKEGELLEVRLENGKIIIERLKKERKTLKLGKKLTLEEIEKAIEEGMKQCMQMHAVIDTNVLIYDTFSDSEFHKESRSLLNSLDRWYIPSIVLQEYVWFFRSQGFSSREAKIMLSEYISDPRFRGLVEDHNVILRAIDILERENLSLSRFNDMIILVHAIEKGTLATFDQKLRKLARKLSVEILP,soluble
22,MFYAHNVDFRVFADFLYLLRVRNSGNVVLILDNASFHKSSYVLATASRLNINLLFLPPYSLDLNRIEFGRI,soluble
23,MSLDIADVAKRTGVPASTLRYYEKKGLLKSLAGRGQRRQFAADVADRLALIALGQAAGFSLDEVGAMLVDLQVDRQMLMAKADELDARIKRLQAMSKGLRHAAQCPEKDHLACPKFQQLMKLSAAGALGEKQARTKAFVTDEGHHHHHH,soluble
24,MKVIEFHQVSKWYGQFQALKSISLTVNKGEIVVICGPSGSGKSTLIRTVNGLESIDSGEIIVLPELDERTRRSGKIGMVFQHFNLFPHLTVLENLTLAPIRTLKLSAQEAKERAYHFLQRVKITDQTHKYPIQLSGGQQQRVAIARSLCMQPEILLFDEPTSALDPETINEVLEVMVDLAQDGITMMCVTHEMGFARKVAHRVMFMDEGEILEVGSPEQLFQNPTHPRTQQFLNQILSH,not soluble
25,MGSDKIHHHHHHMSLILELKNISKHYPGVKALETVSLRLFSGEVHALLGENGAGKSTLVKVMTGAQSKDGGEIIFLNEKQHFNTPIEAQKIGISTVYQEVNLVPNLTVAQNLFLGHEPKRFGLIHFQKMYADARTVLTQFKLDIDVSAPLSSYSIAVQQLIAIARGVAMSAKVLVLDEPTASLDADEVQVLFGILNQLKQKGVAIVFITHFLDQVYQISDRITVLRNGRFIGEYLTSELPQPQLIEAMLGRSLQQHLVEKTSAEQTTNGTSAVLLSLEGVSVKGSIQSMNLTVPKGQAVGLAGLLGSGRSEVCNAVFGLDLLDSGSIHLAGKKLHLSHPVDAINAGIALCPEDRKVDGIIGPLSIRENIILALQARVGWWRCLSKTRQQEIAQFFIDKLQIATPDADKPIEQLSGGNQQKVILARWLAIEPILLVLDEPTRGIDIGAHAEIIKLIRTLCDDGMSLLVASSELDELVAFSNKVVVLRDRYAVRELSGSELTSQHVMQAIAEG,not soluble

# Source: the DeepSol protein solubility set
